Tests used:
[1] = target: receptor for Angptl2 expressed on mouse bone marrow hematopoietic stem cells (unidentified) (mouse); experiment: flow cytometry; fresh mouse bone marrow cells, ~1 ug/ml Angptl2-hFc at 4 C for 30 min, anti-human IgG1-PE
[2] = target: receptor for Angptl2 expressed on mouse bone marrow hematopoietic stem cells (unidentified) (mouse); experiment: flow cytometry; 4 day cultured mouse bone marrow cells, ~1 ug/ml Flag-Angptl2 medium

Angptl2-hFc (human Angptl2 fused to Pro 100-Lys 330 of human IgG1 Fc) (from UniProt Q9UKU9 23-493) (Fc fusion)
percent of total bone marrow cells that bind [1]: 12.8%

FLAG-hAngptl2 (human Angptl2 with a FLAG tag fused at the C-terminus) (from UniProt Q9UKU9 23-493) (ligand)
percent of total cells that bind [2]: 5.3%

Reference: patent US20070020757A1
